Holding throughout (assay): cell-based or functional assay
For one assay, the target named is T1, EphA2(h) (human, UniProt P29317 559-976, limits assumed).
T1 sequence (looked up): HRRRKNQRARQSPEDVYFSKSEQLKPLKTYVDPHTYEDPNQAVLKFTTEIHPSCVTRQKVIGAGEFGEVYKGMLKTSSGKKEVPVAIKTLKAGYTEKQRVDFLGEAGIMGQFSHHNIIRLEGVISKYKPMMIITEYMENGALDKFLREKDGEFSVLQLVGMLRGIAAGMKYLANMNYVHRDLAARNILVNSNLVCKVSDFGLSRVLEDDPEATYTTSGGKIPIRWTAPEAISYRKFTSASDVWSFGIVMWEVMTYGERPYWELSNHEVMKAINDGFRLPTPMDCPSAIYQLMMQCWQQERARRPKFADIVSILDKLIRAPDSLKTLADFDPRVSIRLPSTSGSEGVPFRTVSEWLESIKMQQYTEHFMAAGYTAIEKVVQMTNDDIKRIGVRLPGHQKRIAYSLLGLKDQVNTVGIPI

For the next assay, the target named is T2, SGK2(h) (human, UniProt Q9HBY8 1-367, limits assumed).
T2 sequence (looked up): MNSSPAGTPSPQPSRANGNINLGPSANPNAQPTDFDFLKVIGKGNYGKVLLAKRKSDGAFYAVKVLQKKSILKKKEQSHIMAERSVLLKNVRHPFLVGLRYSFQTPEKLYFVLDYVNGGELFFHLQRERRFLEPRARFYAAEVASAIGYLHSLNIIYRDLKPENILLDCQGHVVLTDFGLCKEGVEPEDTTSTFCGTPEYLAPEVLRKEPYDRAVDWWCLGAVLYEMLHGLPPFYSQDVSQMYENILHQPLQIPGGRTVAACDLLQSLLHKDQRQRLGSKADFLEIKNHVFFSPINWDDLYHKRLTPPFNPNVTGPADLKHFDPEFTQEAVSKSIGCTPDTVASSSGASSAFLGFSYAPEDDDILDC

For another assay, the target named is T3, EphB4(h) (human, UniProt P54760 561-987, limits assumed).
T3 sequence (looked up): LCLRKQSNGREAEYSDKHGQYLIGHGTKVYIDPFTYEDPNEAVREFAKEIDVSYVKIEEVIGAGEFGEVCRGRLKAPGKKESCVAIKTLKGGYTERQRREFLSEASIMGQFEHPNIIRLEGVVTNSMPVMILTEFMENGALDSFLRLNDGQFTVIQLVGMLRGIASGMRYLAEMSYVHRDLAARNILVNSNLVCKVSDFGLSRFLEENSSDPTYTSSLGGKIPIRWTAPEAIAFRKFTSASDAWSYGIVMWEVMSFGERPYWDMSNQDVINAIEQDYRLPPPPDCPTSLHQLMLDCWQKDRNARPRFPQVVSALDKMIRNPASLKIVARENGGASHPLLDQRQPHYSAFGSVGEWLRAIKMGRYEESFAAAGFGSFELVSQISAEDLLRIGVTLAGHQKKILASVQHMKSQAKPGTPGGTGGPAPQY

The target of another assay is T4, CHK1(h) (human, UniProt O14757 1-476).
T4 sequence (looked up): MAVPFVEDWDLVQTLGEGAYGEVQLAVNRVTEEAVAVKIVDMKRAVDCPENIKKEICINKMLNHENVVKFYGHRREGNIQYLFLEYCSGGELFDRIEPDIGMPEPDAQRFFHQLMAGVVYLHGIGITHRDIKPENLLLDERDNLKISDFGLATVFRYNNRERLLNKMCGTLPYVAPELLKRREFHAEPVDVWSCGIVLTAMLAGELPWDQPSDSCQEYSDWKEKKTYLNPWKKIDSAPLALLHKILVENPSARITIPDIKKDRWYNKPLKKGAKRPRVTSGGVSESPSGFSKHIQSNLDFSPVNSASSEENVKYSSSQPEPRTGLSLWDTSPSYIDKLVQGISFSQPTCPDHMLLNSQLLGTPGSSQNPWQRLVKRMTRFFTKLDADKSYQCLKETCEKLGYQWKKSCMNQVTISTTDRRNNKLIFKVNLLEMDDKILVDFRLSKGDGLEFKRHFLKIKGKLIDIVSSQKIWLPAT

A further assay addresses T5, PhKγ2(h) (human, UniProt P15735 1-406, limits assumed).
T5 sequence (looked up): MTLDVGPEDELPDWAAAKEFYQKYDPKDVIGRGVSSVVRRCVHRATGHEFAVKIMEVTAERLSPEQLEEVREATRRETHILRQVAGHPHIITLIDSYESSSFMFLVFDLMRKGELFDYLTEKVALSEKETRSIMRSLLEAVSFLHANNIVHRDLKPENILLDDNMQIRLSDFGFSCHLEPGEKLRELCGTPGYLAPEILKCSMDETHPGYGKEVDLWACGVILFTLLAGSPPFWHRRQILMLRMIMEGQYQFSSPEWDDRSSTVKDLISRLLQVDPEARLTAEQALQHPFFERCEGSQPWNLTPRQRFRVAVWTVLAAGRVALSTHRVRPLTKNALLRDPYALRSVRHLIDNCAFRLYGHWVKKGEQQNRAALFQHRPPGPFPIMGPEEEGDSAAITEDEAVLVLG

For a further assay, the target named is PASK(h) (human, UniProt Q96RG2 879-1323, limits assumed).
PASK(h), sequence (Q96RG2 879-1323 limits assumed): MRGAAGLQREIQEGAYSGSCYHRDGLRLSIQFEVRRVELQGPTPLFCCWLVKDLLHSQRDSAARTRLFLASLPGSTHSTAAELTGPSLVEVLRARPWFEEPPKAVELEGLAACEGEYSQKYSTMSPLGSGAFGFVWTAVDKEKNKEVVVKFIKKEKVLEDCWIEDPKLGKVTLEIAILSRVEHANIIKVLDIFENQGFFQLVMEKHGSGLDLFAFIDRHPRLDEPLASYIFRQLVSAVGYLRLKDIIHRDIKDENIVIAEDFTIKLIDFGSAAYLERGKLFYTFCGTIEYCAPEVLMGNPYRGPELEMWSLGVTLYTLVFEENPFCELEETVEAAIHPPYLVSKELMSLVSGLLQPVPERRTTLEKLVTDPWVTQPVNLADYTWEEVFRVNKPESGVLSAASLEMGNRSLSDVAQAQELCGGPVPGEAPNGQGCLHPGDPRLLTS
The target of the next assay is T6, TAO3(h) (human, UniProt Q9H2K8 1-315, limits assumed).
T6 sequence (looked up): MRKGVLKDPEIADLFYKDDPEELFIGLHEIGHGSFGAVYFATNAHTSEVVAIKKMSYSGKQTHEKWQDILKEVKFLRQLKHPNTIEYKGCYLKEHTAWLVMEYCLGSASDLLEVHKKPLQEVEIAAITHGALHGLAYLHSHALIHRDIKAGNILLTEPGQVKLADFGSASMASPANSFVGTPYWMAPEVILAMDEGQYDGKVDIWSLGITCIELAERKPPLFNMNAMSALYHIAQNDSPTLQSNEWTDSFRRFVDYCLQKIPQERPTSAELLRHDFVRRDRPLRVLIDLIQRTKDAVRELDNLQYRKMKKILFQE
Note: test concentration or dose not given here.

As to KAFAKLAARLYRKALARQLGVAA [MMI-0400], the “% activity” value with EphA2(h) worked out at 17%; in the assay with SGK2(h), 98%; in the assay with EphB4(h), 28%; with CHK1(h) it was 87%; with PhKγ2(h) it was 38%; in the assay with PASK(h), 28%. For the same molecule, the “% activity” value with TAO3(h) amounted to 67%.
Consider FAKLAARLYRKALARQLGVAA [MMI-0300], for which the “% activity” value with EphA2(h) was determined as 31%; with SGK2(h), 56%; in the assay with EphB4(h), 44%; with CHK1(h), 91%; in the assay with PhKγ2(h), 46%; in the assay with PASK(h) it was 29%. Moreover, in the assay with TAO3(h), the “% activity” value came out at 77%.

The values above are taken from patent publication US20160200782A1 (MOERAE MATRIX, published 2016).
